Assay results: the domain aggregation screens of Martell et al. (2025)

assay: soluble fraction after stress (log2 fold change); higher = more stays soluble; pooled small domains, quantitative proteomics; conditions: stress: 75 degC
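Also: 20 min heating vs room temperature control held 20 min.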

Sequence | soluble fraction (log2)
HMNVDLLEARIPIQSHGMRLDQVVAELFPDYSRNRLAAWIKEGRLTVDGKTMKPRDRALASAHVVLEVV | -0.3
HMNVGKYILTLAAKEGYSQSDVARRTGISRQMLSYIIAGERKLTLPQALKIESLLSLKTGTLILMQDED | -3.35
HMNVNEIREMYPEGTQIVLTEMRGENQMPYGLKGTVKFVDDAGQIHMKWENGSSLALNINEDTFEKVE | 0.91
HMNVPATAEAYEALLADAESVGKSLWGHEAKRFAAEQALLSAGLREVIQVDPDKARELALRLRGLLDEYRG | 0.19
HMNVQGFVFDLAEPLDKVPSIEGFPLKLEDPLTLVAAVNKDRSINALFAELSKLNIKIKSMRNE | -0.0601
HMNVVSIEHIRTHLQNHLSLIGRSIEESFNEAKVIAFVASLFLTHRGYASVSQDMGTNGEIYLQDLW | -0.465
HMNVWGLSERELEATRLLIEGFSSKEASARMGISPSTVRSLWGRARAKMGVDSIEDARELVA | -0.415
HMNYAVTAARRESILNAALEIFGKSGYNGSSVKQVALAVGMTEAGVLHHFGTKSNLLIEVLRV | 0.396
HMNYLDVNIPVTSAVWMGKQLPEMGTLIYLTPDKDVEGMLFIKQATKDKPDGEYIEAKVLGYKEGRVLFDF | -0.964
HMPAEEVPLYKAVVVTTPPNRLRVRFSPAGDFKRWLQSGEEVDVYQELGDWRRIEPNGWSSAEWLQRVG | -0.465
HMPAGWIPARIRLADYPQLRSLAWHVQGIDTLTPTEALDIYERNARHLDAQAMSAQEQDLLASLRLALS | -0.888
HMPALPGNELLRNLMLEHGLKQVDLAEIGSQGVVSEILSGKRRINRRHADLLARRFSLPAELFSR | -0.217
HMPANLTPDYFKAEQWYRSASTNEEKMLALEQMLAVMPKHKGTEHLQADLKRKLSQLKDASAQ | 0.19
HMPAPAPDIPYHSRVSVRRADGFYEGTWTNTAPILDYTGRWMVNVSLGGKRVFVPVEEVVVH | -1.05
HMPAPKPSGALSLKDEPLYAASDSKRRSGTVSGTYYRWDGENVNGRMRITNKQENIGKAGQVTGWITAH | 0.0409
HMPASTSIPYSDFISRVESGDVQEAKIGESAITGTYKDGSQFKTVKPPTLDTNLMPTLIQNKVNVVGVEP | 0.176
HMPAVGGVVKGAVVSVGRNEVRLDIGGLAIGIIRGPELDKHVDLRIGDEVEATVITLDNEFGELELSL | -1.37
HMPAVTEQTKTNLRRAFWQLYEQKPIQKITVKQITDLAGYNRGTFYLYFKDVYDLLDDIENK | -1.09
HMPAVTEQTRANLRTAFWSLYREKPTSKITVREITDRAGYNRATFYLYYRDVYDLFEQIEQEIL | -2.37
HMPDAGQRRYLELVTALAGARSLTIDDLERRAIRFAEWGNGYSGRTARQFIDTLLQDRGVAEEL | -0.731
HMPDAIPLETIIKNVNVLAGFLINSKTFTEDDIVMAYNNIMKIKGDHTDEKTLTNDVYTLLTEMN | -0.714
HMPDIFDRGTAHITDAASGVAITFTRTFRIPPEVTMTHKGGTVVAIARLVGSITTGGFTAVLENT | 0.0362
HMPDLQDTLYRLVPEDGSAIGNQSLREKFLSTAKDASDADFEAARDGLVEQGKLTKGKGRGGSVRRAEP | 0.551
HMPDLSMLDEVLDEYRSQAGSLVTVLQKAQDLYGYLPLTILRHIAEEMNIKPAQVYGVATFYTQFRL | 0.0378
HMPDRQKDIQNWQQIAETLLNMLDKYVAALETGKTGLAEAYKAIFAETLRRLDDRLDPEQFLP | -1.91
HMPDTETLTPRQRQILDLVQELGFTTIETLAERFGVSAQTVRREIIRLQAGNFLQRFHGGAGLASGGIRSA | -1.24

Sequence | soluble fraction (log2)
HMPDYAFEGVVIKLTHRDYDRWKAGFPDVDLPPYLTARDAWLSEQTPADRKNWFVSTATDLRNFQKREAI | -1.26
HMPEDQISYTDLIKQINDGNVEKIKMTVGSTTIKVNLKEQEEPKTAIVPSTQAFIELVQEKVQDGNEITLI | 0.164
HMPEITPAMIKALLSSLSEELAFASVTKVYAVLHNLFKAALLDDTIDRNPMDKVPRPRKSKDAAL | -0.576
HMPELPEVETSRRGIEPHLVGATILHAVVRNGRLRWPVSEEIYRLSDQPVLSVQRRAKYLLLELQA | 0.0647
HMPELSPEERAIIETLQKNNDLQVNIIAIKTGMDMGSLSAVLFDLEMKGLVKLLAGGMYHLI | -0.66
HMPEPAPALPAKTRVSIRRETGGIIWHEGAWTISPPIRAYDGRWYVAVTTARKGIEFVPVSSVIRS | -2.18
HMPEPMKLSDLPPELWQRVSDLFDEVIDLPETDRIPYIRNLWGSEPLVAKELMALLVAAANVD | -0.452
HMPESFSEMQKRTGVGEFSDDALSAKYVDSIDADVMSLDEYIMKVRGISLDDLEAERALRAR | 0.0969
HMPETAQLTDIQVSRSQAHTGIFSLHYYLTGTDSRGERVRLEISGDDYTRLSGSSSVTVEYYRHTGRIVRY | -1.16
HMPETYVVFSKDGYANLRRGTTINSEILDVLDNGEYVTKLDEVGEWYRVEYADFDGGYIHKSQLKNI | -0.288
HMPFDRTVQLAGARARQLQALPRYREVLRLLDEGMNPREIGQVLDPPVTRQRASALIQQAKRAQMLGLFED | -1.04
HMPFNLKSLADRLSHVFPGLVKMRDDIGAIIVMDKIKVTEHGVTEGGGLAADRVRAVYNEFIKEY | -0.247
HMPFSLHGVNEGSRNDNAARIAGYLISKNLNLDFVRIFLHNWNRDNKPPLPQQEIDSVVDNVKKTHDRKN | -2.09
HMPGEATVPSVIGMTKAEAKAKLQASGFELGYSEFVASDKPKGEIVEQDPGAGETAKGGTEVNVKISDGS | 0.0718
HMPGLDTTILSDILSLKKELPSRSAAKILIMLILAKRIEEGSLNLRTINRILNQYGYTRESLL | 0.144
HMPGLQSVTPAELKIGMYVILPLAWDEHPFLKNHFLIQSEAQINKIRELGTKGIQIDLSKSHP | -1.9
HMPGMLVVYVTGAVRQPGRMVTLAAGSRVSDAIDAAGGLADDADAQALNLSARLNDGDLVHVPSALD | -0.264
HMPHILEITSSKILDELQDEKKMVYFHFEKQSNQYVYRLIFNSKNELMEFKKSLEKNSSILDVRADM | -1.81
HMPHITDAEWEVMRVVWANHHVTSKEVISILEDKMNWKATTIKTLLGRLVEKGALSTEQDGKKFIYTAR | -1.6
HMPHTDATDKQIIALILETLKDGQKHSVSEMTFPGIPREKTAQLLHQMIEEETVRIQNGVLFLPH | 0.00795
HMPIDNTLLSRITSLGVSTTEAEKLISKHGEEALKANLEVVEERLSKPNLPLLDSPAAYLKTALKNG | 0.415
HMPIEQVEVPNLTNMTREEAESTLTSLNLKAQVHEEANEADEGKVFKQGTNTGEMVDEGSTIEIWVS | -0.549
HMPIHAGERLTLRLAGEGREAGQAIGYLEDGTLVIVERARHLIGQDVTVEVTRTLQTAGGRLVFAHLVE | -1.1
HMPKDLEKRAAILAAAKHLFPVHGFEGTSMDAIAALANVSKLTVYSHFKDKESLFTEAIREK | -0.0647
HMPKDMAKRASILTAASKLFVQHGYGGVSMDQIAAEAGVSKLTVYSHYGDKDSLFAAAVQAH | -0.617
HMPKELAPYDILARYYLTVNNSKQSIALLEQYLDKAGSAPAALKAKLLLAGILYPSGNKERAEKLVEEVIK | -0.463

Sequence | soluble fraction (log2)
HMPKETFLNLDEEKRQAIINVLLKNFSEQHISQVKVSAIVSGIGMSRGAFYKYFEDLEDAYRFTISYFSA | 0.147
HMPKLTKEEIQFIDNYLKNSGVEYIDTRAEVVDHVASEIESRLSANNTTNFYEEFKVYMVQHKETLLK | -0.21
HMPKLVGEVMQTLDALRREKGLSLLLVEQNARAALGVVDRVYVLERGRVVFEGSAKEAMEDQDVMEFYLG | 0.0465
HMPKRSKDEAELEFLEMLRDNQVDSTWSFGKIISQLGSTDPRYWMVDDDPLWKRQIFEKYLSNR | -0.228
HMPLDISDDSKAVLKLLKNDSNELNTVKSASGLSNKKWDKTIKELTKNKIVSVSKTEDGLYIHLI | 0.438
HMPLDYQELRNISPQAARQAILQILKANKGNVSQTARMLGITRKTVYKAMAKREAGNLDDGSRAPK | -1.41
HMPLLELPDDFYPAWKPKTIYVQGQRIMLDGVAFEAKWWTQGDNPASGQADPGSSPWRTLTQEEIAKLLE | -1.52
HMPLLKIGAQGHDVRVVQEALQRAGYAIEGVTGIFDEATREAVLAFQRDQQLTESGTVDRATWHALRR | -0.0683
HMPLLSPRQLDVLSLAAGGLSDAQIAGRLVLSESTVRVHFHHIIEKLGVTDRAGAIAWYEQSRS | -2.05
HMPLNAFDVAGYRLGYGGGYFDRTLAALSPRPLAVGVGFEINRLESIRPEAHDQRLDWIVTENGAFRPA | -1.58
HMPLNAHIVGRGKRDRRGKRGAPYSIVLELGRDENGKRIQKWYSGYPTKAAAEEDKIRMLRELQTGEYVPQ | -0.889
HMPLPFSPVMFVGTKSGAQTDLDGNYKIETYYSSDSLKVVVLGYAPLAKKVKQGTTSVVNFELSAAS | 0.161
HMPLPLYVQIKESLRGQIFDGTYGEHERLPSENDLMSSFGVSRITVRQALSDLEKEELIFKVPGKGAFVSR | -1.5
HMPLQKNRPKIKPQKVVFLFSVEWMWSPAHNRIDSYFINIKPSRYYLWNSFFDRHSFSDYWDFIGYTEN | 0.1
HMPLSDAEKAAAIATQAKERALKLSPEMISYLLRHASRDMRTLSMLVVALDQYTLEQKRPVTLPLLRELLS | -0.0668
HMPMIQHFHRMISAALGISEKQIVQTLGLLNDGATIPFISRYRKEVTGGLDEVQIESIKTHYEKLNEIAK | -2.33
HMPMPQDEVSYALGLSIGQNFKASGIKAITSEDFIAGLQDALAEREPQMTTERAREVINQLFMRLQQEESE | 0.323
HMPMTDYQLIRSNRRTIALQITRDARVVVRAPLYASEADIRRFVESHRAWIESHLDRQRARTD | -3.25
HMPMTRILFLPDDRTILQFDSAEPAEDLVSAVNAGRWLPPEPYRSGFGLGLPENRLRASRQGALVVVMLS | -0.984
HMPNDYRKKLEILAKEKGAEYLHTMLTEVDPKSALQIHTNNIKRTIRALEFYHQTGMKISEHNEAEREK | -0.204
HMPNIHVVFAEEWTDRRLDKVLSEYFDGYSRSFIKKLFDDGLILVNSKAVKPSYKVRAGDMIDISVPDPV | -1.83
HMPNPALESARPAFEAFLSRFSDGEAMRGPAWGLWSLLHRKGNAPTASHAAGRDGMGVLAFLRHWQWG | -0.452
HMPPDLSEAIQKRIEGKTDEALEILRKLYNEYPESTEIITMLGRTLLDAEEYALAAFRLEQALDLGG | -0.699
HMPPDVIENIFKNDANKIIDLYNMAPRGQKETIVEMIKNKRLQGINVDANVLVKLGELTGIDFVN | -0.087
HMPPLVLRGVVMGADGARLAILAQGEAGAALGIGETWKEYTLRSVTDQSATLEHRSGTITLTR | -0.701
